Experiment: soluble on expression in E. coli; label from the status in PepcDB or PDB records

Sequence | soluble on expression in E. coli
MANPLYQKHIISINDLSRDDLNLVLATAAKLKANPQPELLKHKVIASCFFEASTRTRLSFETSMHRLGASVVGFSDSANTSLGKKGETLADTISVISTYVDAIVMRHPQEGAARLATEFSGNVPVLNAGDGSNQHPTQTLLDLFTIQETQGRLDNLHVAMVGDLKYGRTVHSLTQALAKFDGNRFYFIAPDALAMPQYILDMLDEKGIAWSLHSSIEEVMAEVDILYMTRVQKERLDPSEYANVKAQFVLRASDLHNAKANMKVLHPLPRVDEIATDVDKTPHAWYFQQAGNGIFARQALLALVLNRDLVL | soluble
MTARDYIWNADGEVGGINDKLRGCLVFSYDRSGWLTSRTGQMYDHDHYYYDKAGNLLTDEYQGAVMDNRLPGYGRDRYRYNEWGELTERRDQQLEWNAQGQLTRVISSNSETRYQYDALGRRISKATSNLHTDRGERSRTTFVWEGFRLLQETTWQGKRTYLYDAEQPYTPVAAITGRGESQKIWYYHTDLTGTVHEVTAPDGTLVWAGYQAGFGENRGDISNSGAYFEQPQRLPGQYFDEETGLHYNLFRYYAPECGRFVSQDPIGLNGGLNLYAYAPNPLGWIDPLGLNSLGIDSNNIFRGDGNYKGGGIGQPKSGTISAQDIIDHLLEHHHHHH | not soluble
MGSDKIHHHHHHMVIKEFNSLNTELVREIEKLTETCGKFDGIQEEVNLDDGFNFNKSMKWLFVLYEKDKVVSVVSIFAPKEEEGEISACTLPEYRRKGYFKELLSKAKNELLKYNVPKILFVCPKGSKQGEAVIKNSDAIYKFAEYTMNFNKNKFKAKGKYITKLAEANYNDLNKITKVASDVYSESYEQANSMMKNALESSDRLQFKLKLKEDYIGVVAAYFYHDKVSIFGVGILPEYRGRGFGREMMSMLLEYLIERDYDDIALEVDSNNKRAFELYKSIGFQIEREIDYYEEKINNTFYSY | not soluble
MIFYFSGTGNSKWIAEQIAKAQNEVLVFMPNAIRDGIEEFVLADDEKVGFVFPVYSWGPPLSVLRFLDWITLSNYHSQYVFFVCSCGDDTGLTEELFRRALSRKGMECNAGFSVAMPNNYVLLPGFDVDKKELEKKKLDEAVGRVEEINDSITGKKIGFHCNEGSFPWFKTKVLNPLFNRFMTSAKPFYATDDCIGCKRCERICPVGNVVMIGWRPVWGMDCTSCLACYHVCPKHAVQYGRRTKRKGQYLNPNVSISHEAAAQLEHHHHHH | not soluble
MGSDKIHHHHHHMPSETIKLTAKFKLKEIPNGLDVLFSTYREIVNFLISYAYENNITSFYRLKKETYKNLRKEYPELPSHYHYTAIDMATKIYRGYRKRRGKAKGKPVFKKEVIMLDDHLFKLDFEKRIVKLSTPSGRIELEFYPAKYHEKFKGWKVGQAWLVKTPKGLFINVVFSREVEIREPENFIGVDLNENNVTLCLPKGEFIQIITHEREIRTGYFVKRRKIQKNLRVGKKREELLEKYGSRERNRVDDLYHKLANKIVELAEKYGGIALEDLTEIRDSIRYSAELNGRLHRWSFRKLQRIIEYKAKLRGIKVIFVNPAYTSTLCPICGGKLSPNGHRVLKCKCGFEADRDVVGSWNVRLKALKMWGVTVPPESHPMKKGGWKVSRIDITQITADQNGYFMRRLRRALLLQ | not soluble
MFVKNVNFYYRQILEKFENSYFAEDLTKVIIGIDCDYLDANELSFSEFKAKYYEALSKNKICDFAGFFGVFSANFVSLFEKIPLSSKKNYDFPLFLFANAKAYLIYEKNSKMFFKFGASKYFEYLKDDIEPMKKKQKNDFEILNSLEDEKNDFLKMCEKAKEYLLSGDIFQVVLSKQLCIKHQVNAFDYYESLSALNPSAYMFYFPSKYGVVLGSSPEFLLKIKKREIYLAPIAGTRNLENNCDLLALEKDLLSDEKELSEHKMLVDLARNDASKFGTQTRVENLFSIIKNKFVMHIVSEVYANMKEDASIFDVIEAVFPAGTLSGAPKIRALEITSELEDCDRGIYGGAVGFLNFNEDITLAILIRCAFFTQDKAYLASGAGIVLQSESQKEYAEICAKRKALLVAFENLKKENQ | not soluble
MAHHHHHHMPQRSHVPLASPSPLNAPPPLTSRPGPVNYCGAHAEPAAGLNYTHHDDHRSVFRDQASCDPSPSQRALHQQQVHRPRAVSPGPHDGSAPHVSALVARGAVIRADELETILDEQNYIWQMEEYRFRTERQKRLTALQHRQHELMLESARYDQAVAEVERQLARERQRLEELRQMMARNATTSCSPIDREHGLQDPPTAMSDAPHVIARNSSAMHHGQARDHAYSAPHDAPYFPTGASDGLSAMNEEEVIAEV | not soluble
MGSDKIHHHHHHMMADERIEVLKDILLELHHGASAESVQERFNQHFKGVSAIEISMMEHELMNADTGITFEDVMGLCNVHANLFKGAIADVDVPDAEQEGHPVKVFKDENLALRAAIMRIRRIIENYTKPENEDFRQEILKGLKHQFDLLGQFYHHYTRKEKLFFPIMERYGHDSPPKVMWGVDDDIRDLFKDAKATLAKLPDGSIEELSQKFEAFAKEFEEMIFKEEAILLMILLESFTQDDWLQIASESDAYGYAILKPTEKWIPHRESFDNEADADTSDNQLADALNQVQDANSPEGTNTKVINTPEGQFTITFKPKEKEAAADRTTQQPFGNGYLSVEQANLILNHLPLEITFVNKDDIFQYYNDSVPAAEMVFKRTPSQVGRNVELCHPPKVLDKVKKVFELLRNGQRDKVNMWFQSERLGKFVYVTYAAVRDQAGDFQGVLEYVQDIKPFFELDSEFNRDI | not soluble
MQERHTEQDYRALLIADTPIIDVRAPIEFEHGAMPAAINLPLMNNDERAAVGTCYKQQGSDAALALGHKLVAGEIRQQRMDAWRAACLQNPQGILCCARGGQRSHIVQSWLHAAGIDYPLVEGGYKALRQTAIQATIELAQKPIVLIGGCTGSGKTLLVQQQPNGVDLEGLARHRGSAFGRTLQPQLSQASFENLLAAEMLKTDARQNLRLWVLEDESRMIGSNHLPECLRERMTQAAIAVVEDPFEIRLERLNEEYFLRMHHDFTHAYGDEQGWQEYCEYLHHGLSAIKRRLGLQRYNELAARLDAALTTQLTTGSTDGHLAWLVPLLEEYYDPMYRYQLEKKAEKVVFRGEWAEVAEWVKAR | soluble
MNLFFEKTGATNVAEFSVSEIAGALKRVVEEKFGYVRVRGEISGYRGAHASGHAYFALKDDKARLEAVIWRGIMEKLKFPPEEGMEVIAVGKLTTYPGSSKYQIVIEALEPTGVGALMTLLENRKKKFAEEGLFDEEKKKPLPYMPKIIGVVTSPTGAVIRDIIHRISDRFPLHILVWPVRVQGETSGREVAAAVKGFNVLPLEGLIPKPDLLIVARGGGSLEDLWGFNDEVVVRAVYESSLPVISAVGHETDWTLIDYVADWRAPTPTAAAEKAVPVKIDLEVYVVSLGARLRTGLARYFDFHQQKLRAIIRALPTADQLFALPRRGFDEISSRLERALCVSCDKKRLYFHTLAIRFTPRLLNTEKAQHSAKEYTARLHRAFVHIVEKQRAQLEIAFRLLKSTSYQNILERGFVLALGQNNKPIKRLAQIPEKEQINLRFFDGEISVITQESFFNRSSKSKRIKSKQDDQGTLF | not soluble
MLRKLWKRPHSTWNKITAVTNVSSEKTITDGQLSEKARKDVDHDVDRTIYDIPLEYCHLRIPKSRTSRSCPDPWRRYGAHVKLCEVGGWMPENRNKNSKVIVVKKGSAPPAAPRCKPLMTVEDYLGVLRK | not soluble
IGKEKAEVELLQVDPELQAEIIATHNIALQAAVQVEEKKAREAATEAVKEVVIGEYEARYAEHEEYDRIMRDVAEILEQMEHAEVRRLITEDKIRPDGRRVDEIRP | not soluble
MFDGIGFMELLLIGVLGLIVLGPERLPVAVRSVTSWVRAMKRMANSVKEELEQELKIEQLHADLKKAESKGLSNLSPELQESIEQLKQAAQSVNRPYQVQDTPSAQDNQIHNPASQTVSTEASSTSASSAPKSESIQGEDPRSNTKANGLEHHHHHH | soluble
MMMDLNIRRVVLDVDKGLNRPTLVELAAAIEKVQGVEAVNIIVTEMDMETMGTNITVEGTNINYDELIETIENTGSAIHSVDEIAVGKRLIENVRRNQN | soluble
MAHHHHHHMGTLEAQTQGPGSMFITFEGIDGSGKTTQSHLLAEYLSEIYGVNNVVLTREPGGTLLNESVRNLLFKAQGLDSLSELLFFIAMRREHFVKIIKPSLMQKKIVICDRFIDSTIAYQGYGQGIDCSLIDQLNDLVIDVYPDITFIIDVDINESLSRSCKNGYEFADMEFYYRVRDGFYDIAKKNPHRCHVITDKSETYDIDDINFVHLEVIKVLQMV | soluble
MGSDKIHHHHHHMLTASVNEAEPCAEPQRPVIRLHPVTADDAPKLPATRCSTCAIRNVCMPAGLTPIEFARLDAMVCTTRHVKRGDALFRTHDTFQSIYAVRTGSFKTVVMHRDGREQVTGFQIVGETLGLDGVCGGRHNSDAIALEDSTVCIIPFAQLEAVCREVKPMQHHVHQLMSGEIVRESSLMMLLGTMTAEQRVAAFLLNISERFQKRGYSASEFNLRMTREEIGCYLGMKLETVSRMLSKFQRDRLIAPRGKQIRITDPQGLARV | not soluble
MSLQEKNFSEEEIDDALSRCQAKNWQSDRRFSENYLNSRVQKGYGVGRIRQELRQLKGVSSDIIDEVLMESEIDWYEMAENLLRKKFPNYNEQQTPKMKQKIWQYMLSHGFRSDEFADLIGQNQSEWDEGHHHHHH | soluble
MMRRGGQHLSPDPIGLGGGIQPQSYVHNPLEWVDPLGLTESGCKQPNSPENSQKPEVKKPNISTKIHDGAQGKHIEGHNNYVEGKSVIDAKPQELLDNYHAGNVNTSRVINENKIKVDFGDVNGTHKDMNGTNTSTSWGLIHSRKNGAHIVPALPDTILEHHHHHH | not soluble
MGSDKIHHHHHHMRTVYIIGSKGIPAKYGGFETFVEKLTEYQKDKSINYFVACTRENSAKSGITGEVFEHNGATCFNIDVPNIGSAKAILYDIMALKKSIEIAKDRNDTSPIFYILACRIGPFIYLFKKQIESIGGQLFVNPDGHEWLREKWSYPVRQYWKFSESLMLKYADLLICDSKNIEKYIHEDYRKYAPETSYIAYGTDLDKSRLSPTDSVVREWYKEKEISENDYYLVVGRFVPENNYEVMIREFMKSYSRKDFVLITNVEHNSFYEKLKKETGFDKDKRIKFVGTVYNQELLKYIRENAFAYFHGHEVGGTNPSLLEALSSTKLNLLLDVGFNREVGEEGAKYWNKDNLHRVIDSCEQLSQEQINDMDSLSTKQVKERFSWDFIVDEYEKLFKG | not soluble
SQVARWLGLDIPSPPIGSLFGVEIPEETGTKLEERVVDASMLSHGDLLMNLSLRDEELVILVRRGEGYRVPKGRMHLQVGDVLLIVSEKNLSQTLTSGDPENHPGLLQRLKHRLLRR | not soluble
MGFKCGIVGLPNVGKSTLFNALTKAGIEAANFPFCTIEPNTGVVPMPDPRLDQLAEIVKPQRTLPTTMEFVDIAGLVKGASKGEGLGNQFLTNIRETEAIGHVVRCFENDNIIHVSGKVNPADDIEVINTELALADLDTCERAIHRVQKKAKGGDKDAKAELAVLEKCLPQLENAGMLRALDLSAEEKAAIRYLSFLTLKPTMYIANVNEDGFENNPYLDQVREIAAKEGSVVVPVCAAVEADIAELDDEERDEFMQELGLEEPGLNRVIRAGYKLLNLQTYFTAGVKEVRAWTIPVGATAPQAAGKIHTDFEKGFIRAQTISFEDFITYKGEQGAKEAGKMRAEGKDYIVKDGDVMNFLFNV | soluble
MSLKVGLKLLQTPKESMLFNIDSYKIIGIGISRGNEKYMKSTICVARNIFTNGILVGSFEGILGGRTARLCSYKFVDYFLNKVSNKVVQESIEESLISTFQRLNEKIKEKNLNDVSSGLVYVFYNKILYFAQCGSIKSYIISNSNIKEIGFDHCLSNNEMKKKIMQKGGLVDNNNMLNGVINVCKCIGESNYHNLLNTTPDITKIEYDDDFKFVLTASKSVWDVIDQNELQSIVINSAHIQPPGIANLIRNIALERNCKGNISVTILSLDSEGHHHHHH | soluble
